Laboratory results from paper PMC8298264, “Function of cofactor Akirin2 in the regulation of gene expression in model human neutrophil-like HL60 cells” (Bioscience Reports, 2021).

B1: sp¦O75746¦CMC1_HUMAN (protein, UniProt O75746 2-678, looked up)
Electrogenic …: AVKVQTTKRGDPHELRNIFLQYASTEVDGERYMTPEDFVQRYLGLYNDPNSNPKIVQLLAGVADQTKDGLISYQEFLAFESVLCAPDSMFIVAFQLFDKSGNGEVTFENVKEIFGQTIIHHHIPFNWDCEFIRLHFGHNRKKHLNYTEFTQFLQELQLEHARQAFALKDKSKSGMISGLDFSDIMVTIRSHMLTPFVEENLVSAAGGSISHQVSFSYFNAFNSLLNNMELVRKIYSTLAGTRKDVEVTKEEFAQSAIRYGQVTPLEIDILYQLADLYNASGRLTLADIERIAPLAEGALPYNLAELQRQQSPGLGRPIWLQIAESAYRFTLGSVAGAVGATAVYPIDLVKTRMQNQRGSGSVVGELMYKNSFDCFKKVLRYEGFFGLYRGLIPQLIGVAPEKAIKLTVNDFVRDKFTRRDGSVPLPAEVLAGGCAGGSQVIFTNPLEIVKIRLQVAGEITTGPRVSALNVLRDLGIFGLYKGAKACFLRDIPFSAIYFPVYAHCKLLLADENGHVGGLNLLAAGAMAGVPAASLVTPADVIKTRLQVAARAGQTTYSGVIDCFRKILREEGPSAFWKGTAARVFRSSPQFGVTLVTYELLQRWFYIDFGGLKPAGSEPTPKSRIADLPPANPDHIGGYRLATATFAGIENKFGLYLPKFKSPSVAVVQPKAAVAATQ
B2: Alpha-2-macroglobulin (protein, UniProt P01023 24-1474, looked up)
Alpha-2-macroglobulin: SVSGKPQYMVLVPSLLHTETTEKGCVLLSYLNETVTVSASLESVRGNRSLFTDLEAENDVLHCVAFAVPKSSSNEEVMFLTVQVKGPTQEFKKRTTVMVKNEDSLVFVQTDKSIYKPGQTVKFRVVSMDENFHPLNELIPLVYIQDPKGNRIAQWQSFQLEGGLKQFSFPLSSEPFQGSYKVVVQKKSGGRTEHPFTVEEFVLPKFEVQVTVPKIITILEEEMNVSVCGLYTYGKPVPGHVTVSICRKYSDASDCHGEDSQAFCEKFSGQLNSHGCFYQQVKTKVFQLKRKEYEMKLHTEAQIQEEGTVVELTGRQSSEITRTITKLSFVKVDSHFRQGIPFFGQVRLVDGKGVPIPNKVIFIRGNEANYYSNATTDEHGLVQFSINTTNVMGTSLTVRVNYKDRSPCYGYQWVSEEHEEAHHTAYLVFSPSKSFVHLEPMSHELPCGHTQTVQAHYILNGGTLLGLKKLSFYYLIMAKGGIVRTGTHGLLVKQEDMKGHFSISIPVKSDIAPVARLLIYAVLPTGDVIGDSAKYDVENCLANKVDLSFSPSQSLPASHAHLRVTAAPQSVCALRAVDQSVLLMKPDAELSASSVYNLLPEKDLTGFPGPLNDQDNEDCINRHNVYINGITYTPVSSTNEKDMYSFLEDMGLKAFTNSKIRKPKMCPQLQQYEMHGPEGLRVGFYESDVMGRGHARLVHVEEPHTETVRKYFPETWIWDLVVVNSAGVAEVGVTVPDTITEWKAGAFCLSEDAGLGISSTASLRAFQPFFVELTMPYSVIRGEAFTLKATVLNYLPKCIRVSVQLEASPAFLAVPVEKEQAPHCICANGRQTVSWAVTPKSLGNVNFTVSAEALESQELCGTEVPSVPEHGRKDTVIKPLLVEPEGLEKETTFNSLLCPSGGEVSEELSLKLPPNVVEESARASVSVLGDILGSAMQNTQNLLQMPYGCGEQNMVLFAPNIYVLDYLNETQQLTPEIKSKAIGYLNTGYQRQLNYKHYDGSYSTFGERYGRNQGNTWLTAFVLKTFAQARAYIFIDEAHITQALIWLSQRQKDNGCFRSSGSLLNNAIKGGVEDEVTLSAYITIALLEIPLTVTHPVVRNALFCLESAWKTAQEGDHGSHVYTKALLAYAFALAGNQDKRKEVLKSLNEEAVKKDNSVHWERPQKPKAPVGHFYEPQAPSAEVEMTSYVLLAYLTAQPAPTSEDLTSATNIVKWITKQQNAQGGFSSTQDTVVALHALSKYGAATFTRTGKAAQVTIQSSGTFSSKFQVDNNNRLLLQQVSLPELPGEYSMKVTGEGCVYLQTSLKYNILPEKEEFPFALGVQTLPQTCDEPKAHTSFQISLSVSYTGSRSASNMAIVDVKMVSGFIPLKPTVKMLERSNHVSRTEVSSNHVLIYLDKVSNQTLSLFFTVLQDVPVRDLKPAIVKVYDYYETDEFAIAEYNAPCSKDLGNA
B3: sp¦P20340¦RAB6A_HUMAN (protein, UniProt P20340 2-208, looked up)
Ras-related protein Rab-6A: STGGDFGNPLRKFKLVFLGEQSVGKTSLITRFMYDSFDNTYQATIGIDFLSKTMYLEDRTVRLQLWDTAGQERFRSLIPSYIRDSTVAVVVYDITNVNSFQQTTKWIDDVRTERGSDVIIMLVGNKTDLADKRQVSIEEGERKAKELNVMFIETSAKAGYNVKQLFRRVAAALPGMESTQDRSREDMIDIKLEKPQEQPVSEGGCSC

System: human HL60 cells
Assay: SWATH-MS proteomics, differential protein representation, akirin2 KO vs WT HL60 cells
Format: cell-based
In short: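 Three biological replicates per genotype; 150 µg protein FASP/trypsin digested; IDA library (3 µg digest); SWATH variable windows, 5 µg/sample, 3.6 s cycle; gradient 5–30% B 120 min then 30–60% B 15 min; 1% global FDR; TAS normalization.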

[1] = KO vs WT HL60 cells, sheet "Under-represented in KO"
[2] = SWATH-MS, akirin2 KO vs WT HL60 cells, over-represented in KO

Molecule | Fold Change [1] | Log (Fold Change) [1] | Fold Change [2] | Log (Fold Change) [2]
B1 | 0.5201 | -0.2839 |  | 
B2 |  |  | 4.777 | 0.6792
B3 | 0.5176 | -0.286 |  | 
